Measurements published in paper PMC3323579, “Direct Ubiquitin Independent Recognition and Degradation of a Folded Protein by the Eukaryotic Proteasomes-Origin of Intrinsic Degradation Signals” (PLoS ONE, 2012).
No end group written: not given here. *: point of attachment. Biotin = O=C1N[C@H]2[C@H](CS[C@H]2CCCCC(=O)*)N1

Biological target: yeast 26S proteasome (RPN11-3XFLAG) (yeast, UniProt P43588 1-306)
Test: ELISA; competition: 8 nM apoMb on immobilised 26S proteasome with peptides 100 µM to 0.01 µM; 100 nM MG132 in all incubations; Ki from a one site binding fit
Settings: both partners purified

Biotin-EWQLVLHVWAKVEAD [A-helix peptide of myoglobin] was tested. Which Ki did it give?
Its Ki is 800 ± 400 nM.
